{
  "source": "patent US10918717",
  "about": "(GREEN CROSS, dated 2021)",
  "binders": {"B1": {"name": "anti-EGFR antibody GC1118A (antibody, V domains shown)", "VH": "EVQLVESGGGVVQPGGSLRLSCAASGFTFSDYDMSWIRQAPGKGLEWVSGILGGSERSYYRDSVKGRFTISRDNSRKTLYLQMNSLRAEDTAVYYCARHGSPGYTLYAWDYWGQGTTVTVSS", "VL": "DIVMTQTPLSLPVTPGEPASISCRSNQDLTHSNGNTYLEWYLQKPGQSPRLLIYKVSNRFSGVPDRFSGSGAGTDFTLRISRVEAEDVGVYYCMQGTHWPWTFGQGTKVDIKR", "notes": "These may hold only the part of the antibody that was crystallised"}},
  "biological_target": "epidermal growth factor receptor (EGFR) (Homo sapiens (Human), UniProt P00533 25-645, limits assumed)",
  "assay": "potency 1 binding assay (ELISA); RSM sample #15 (10 mg/ml antibody, 55 mM Na-acetate, pH 6.0, 150 mM NaCl) after storage at 60 C for 1 day, relative to control",
  "protocol": "(11) Potency 1 (Binding assay): ELISA reader (Spectra Max 190, Molecular Devices) was used for potency 1 analysis.\nThe prepared samples were subjected to thermal tests, under the storage condition of: (i) 37° C. for two weeks; or (ii) 60° C. for one day.",
  "data": [
    {"binder": "B1", "values": [
      {"measurement": "EC50% as compared to a control group", "value": "114 to 121", "unit": "%"}
    ]}
  ]
}
